From patent US20190071490A1, “Preventing Post-Ictal Headaches” (Beth Israel Deaconess Medical Center, Inc., priority 2017, published 2019)
Where a chain is given by its changes, count along the chain named. Names and notes keep the numbering of the source.

T1: human α-CGRP (Homo sapiens, UniProt P06881)
T1 construct: 1-37 (WT); purchased GenScript Corporation or Global Peptide Services
T1 sequence (P06881 83-119 limits assumed): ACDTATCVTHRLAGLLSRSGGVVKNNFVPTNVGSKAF

T2: rat α-CGRP (Rattus norvegicus, UniProt P01256)
T2 construct: rat α (1-37); purchased GenScript Corporation or Global Peptide Services
T2 sequence (P01256 83-119 limits assumed): T1 sequence (P06881 83-119 limits assumed) with A1S, D3N, N25D, K35E

B1: M42: G1 variant; L1 R28N; L2 G50A L56T; H2 E54K A57N H61F; HC-FW3 L99T A100V (antibody, V domains shown)
VH: EVQLVESGGGLVQPGGSLRLSCAASGFTFSNYWISWVRQAPGKGLEWVAEIRSKSDNSATFYAEAVKGRFTISRDNAKNSLYLQMNSLRAEDTAVYYCTVYFDYGLAIQNYWGQGTLVTVSS
VL: EIVLTQSPATLSLSPGERATLSCKASKNVTTYVSWYQQKPGQAPRLLIYAASNRYTGIPARFSGSGSGTDFTLTISSLEPEDFAVYYCSQSYNYPYTFGQGTKLEIK
B2: M43: G1 variant; L1 R28N; L2 G50A L56T; H2 E54K A57N S58C; HC-FW3 L99T A100V (antibody, V domains shown)
VH: B1 VH with S58C, F61H
VL: B1 VL
B3: M44: G1 variant; L1 R28N; L2 G50A L56T; H2 E54K A57N S58E; HC-FW3 L99T A100V (antibody, V domains shown)
VH: B1 VH with S58E, F61H
VL: B1 VL
B4: M45: G1 variant; L1 R28N; L2 G50A L56T; H2 E54K A57N S58E E64D; HC-FW3 L99T A100V (antibody, V domains shown)
VH: B1 VH with S58E, F61H, E64D
VL: B1 VL

Columns and labels:
human α-CGRP = target: T1, human α-CGRP; assay: Biacore SPR affinity of Fab fragments to N-biotinylated human α-CGRP on SA chip; type: binding; conditions: 37° C., screening mode except underlined values
Method in brief: (§1)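 HBS-EP pH 7.4 running buffer at 25° C. or 37° C.; N-biotinylated CGRP captured on streptavidin SA chip (<50 RU for kinetics), Fab titrated over surface with regeneration by 25 mM NaOH/25% ethanol. Titrations globally fit to 1:1 Langmuir model; KD=koff/kon, with 2-hour dissociation for very slow off-rates.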

rat α-CGRP = target: T2, rat α-CGRP; assay: Biacore SPR affinity of Fab fragments to N-biotinylated rat α-CGRP on SA chip; type: binding; conditions: 37° C., screening mode except underlined values
Method in brief: as §1

Molecule | α-human koff (human α-CGRP) | α-rat koff (rat α-CGRP)
B1 | 0.000417 s⁻¹ | 0.00752 s⁻¹
B2 | 0.000263 s⁻¹ | 0.00453 s⁻¹
B3 | 0.00021 s⁻¹ | 0.00613 s⁻¹
B4 | 0.000211 s⁻¹ | 0.00558 s⁻¹
